# Source: US20210147564A1 (TENEOBIO, published 2021)
# Residue numbers refer to the chain shown, from its start.
# B1: heavy chain-only anti-BCMA antibody (UniAb) with the heavy chain variable region of SEQ ID NO: 12 (antibody, V domains shown)
# VH: QVQLVESGGGLVQPGGSLRLSCAASGFTFTNHAMSWVRQAPGKGLELVSSISGNGRTTYYADSVKGRFTISRDISKNTLDLQMNSLRAEDTAVYYCAKDGGETLVDSRGQGTLVTVSS
# notes: Heavy chain-only antibody expressed in HEK cells (CH1 deleted, no light chain), tested as supernatant; also called anti-BCMA UniAb; HCAb
# B2: heavy chain-only anti-BCMA antibody (UniAb) with the heavy chain variable region of SEQ ID NO: 13 (antibody, V domains shown)
# VH: QVQLVESGGGLVQPGGSLRLSCAASGFTFSSHAMTWVRQAPGKGLEWVAAISGSGDFTHYADSVKGRFTISRDNSKNTVSLQMNNLRAEDTAVYYCAKDEDGGSLLGYRGQGTLVTVSS
# notes: as for B1
# B3: heavy chain-only anti-BCMA antibody (UniAb) with the heavy chain variable region of SEQ ID NO: 14 (antibody, V domains shown)
# VH: B2 VH with Q1E, V5L, V12I, A49S, F57Y, S80Y, N85S, T91S, Y108H
# notes: as for B1
# B4: heavy chain-only anti-BCMA antibody (UniAb) with the heavy chain variable region of SEQ ID NO: 15 (antibody, V domains shown)
# VH: EVQLLESGGGLVQPGGSLRLSCAASGFTFSSYAMSWVRQAPGKGLEWVSSISGSGDYIYYADSVKGRFTISRDISKNTLYLQMNSLRAEDTAVYYCAKEGTGANSSLADYRGQGTLVTVSS
# notes: as for B1
# Target: T1, human BCMA on NCI-H929 cells (human, UniProt Q02223 1-184)
# T1 construct: whole, on cells; also called H929 human cells that express BCMA; BCMA-expressing cell line (H929)
# T1 sequence (looked up): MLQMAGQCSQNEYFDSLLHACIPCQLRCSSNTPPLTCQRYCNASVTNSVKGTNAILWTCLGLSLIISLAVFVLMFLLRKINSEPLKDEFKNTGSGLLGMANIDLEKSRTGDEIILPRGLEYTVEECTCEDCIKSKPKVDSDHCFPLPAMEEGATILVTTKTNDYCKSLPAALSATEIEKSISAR
# Test: flow cytometry on H929 cells
# Protocol: Supernatants of the 4 test anti-BCMA antibodies were also tested by flow cytometry for binding to H929 cells. The samples were measured by flow cytometry using a Guava easyCyte 8HT instrument from EMD Millipore and analyzed using guavaSoft. Bound antibodies were detected with goat anti-human IgG F(ab)2 conjugated to PE (Southern Biotech 2042-09). All antibodies were diluted in PBS with 1% BSA. Positive staining was determined by comparison to staining with a human IgG1 isotype control.
row,Binder,binding result
1,B1,binds
2,B2,binds
3,B3,binds
4,B4,binds

# Target: T2, human BCMA ECD protein (Abcam ab50089) (human, UniProt Q02223 1-54)
# T2 construct: extracellular domain; Bought protein; also called human BCMA protein; recombinant BCMA protein
# T2 sequence (looked up): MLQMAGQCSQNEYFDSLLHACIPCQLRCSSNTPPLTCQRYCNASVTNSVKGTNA
# Test: ELISA on human BCMA ECD; Octet off-rate
# Protocol: Supernatants of 4 antibodies were tested for binding in a standard ELISA assay to human and cynomolgus BCMA. Binding to recombinant BCMA protein was determined by ELISA using human BCMA ECD obtained from Abcam (ab50089). The BCMA ECD protein was used at a concentration of […] to capture UniAbs at 50 ng/mL. Binding of UniAbs was detected with a goat anti-human IgG HRP conjugated antibody (ThermoFisher 31413). All antibodies were diluted in 1×TBS with 0.05% Tween-20 and 1% dry milk powder.
row,Binder,binding result
1,B1,binds
2,B2,binds
3,B3,binds
4,B4,binds
